Data on 20 molecules can be found in patent publication KR20160003317A (dated 2016).

The chains are these.
B1: SC05-159 (scFv)
scFv: QVQLVQSGAEVKKPGATVKISCKVSGYTFTDYYMHWVQQAPGKGLEWMGLVDPEDGETIYAEKFQGRVTITADTSTDTAYMELSSLRSDDTAVYYCARAEVMTTINNWYFDLWGRGTLVTVSSGTGGSGGTGSGTGGSTSYVLTQPPSASGTPGQRVTISCSGSSSNIGSNNVSWYQQLPGTAPKLLIYSNNQRPSGVPDRFSGSKSGTSASLAISGLQSEDEADYYCAAWDDSLNGWVFGGGTKLTVL
notes: single-chain phage antibody: the scFv stood on phage in the ELISA
B2: SC06-078 (scFv)
scFv: EVQLVESGAEVKKPGSSVKVSCKASGGTFSSYAISWVRQAPGQGLEWMGGIIPIFGTANYAQKFQGKVTITADESTSTAYMELSSLRSEDTAVYYCARLSPRYYGMDVWGQGTTVTVSSGTGGSGGTGSGTGGSTQSALTQPRSVSGSPGQSVTISCTGTSSDVGGYNYVSWYQQHPGKAPKLMIYGGSERPSGVSNRFSGSKSGNTASLTISGVQAEDEADYYCSSYTSSGTLLFGGGTQLTVL
notes: as for B1
B3: SC06-191 (scFv)
scFv: EVQLVESGGGVVQPGRSLRLSCVASEFTFSNYGMHWVRQAPGKGLEWVAVIWYDGSNEDYADSVKGRFTISRDNSKNTVYLHMNSLRAEDTAVYFCTRGQYSSTWFLDYWGQGTLVTVSSGTGGSGGTGSGTGGSTDIQLTQSPSTLSASVGDRVTITCRASQSISSWLAWYQQKPGKAPKLLIYKASSLETGVPSRFSGSGSGTDFTLTISSLQPEDFATYYCQQANSFPLTFGGGTKVDIK
notes: as for B1
B4: SC06-389 (scFv)
scFv: QVQLVQSGAEVKKPGESLKISCKGSGYSFSTYWIGWVRQMPGKGLEWMGIIYPGDSDTRYSPSFQGQVTISADKSISTAHLQWSSLKASDTAMYYCARPGPRGYNHGFDYWGQGTLVTVSSGTGGSGGTGSGTGGSTSSELTQDPAESVALGQTVKITCQGDSLRRYYASWYQQKPGQAPVLVIYGKNNRPSGIPDRFSGSRSGNTASLTITGAQAEDEAVYYCNSRDSSGNSVVFGGGTKLTVL
notes: as for B1
B5: SC06-242 (scFv)
scFv: EVQLVESGPGLVKPSETLSLTCTVSGGSISSYYWSWIRQPPGKGLEWIGYIYYTGTTNYNPSLNSRVTISADTSKNQFSLKLSSVTAADTAVYYCARGGQTAGVWGKGTTVTVSSGTGGSGGTGSGTGGSTQSVLTQPPSVSVAPGQTARITCGGYNIGRKSVHWYQQKPGLAPVLVVYDNSDRPSGIPARFSGSNSGNTATLTISGTQAMDEADYYCQAWDRGTAVFGTGTKVTVL
notes: as for B1
B6: SC06-241 (scFv)
scFv: EVQLVESGGGLVQPGRSLRLSCAASGFTFRSYAMYWVRQAPGKGLEWLALISHDASKMFYADSVKGRFTISRDNSKNTLSLQMNSLTIEDTAVYYCVRERTGYYGAYWGQGTLVTVSSGTGGSGGTGSGTGGSTDIQMTQSPSSLSASVGDRVTLTCRASQGIGTWLAWYQQKPGKAPKLLIYSASSLQSGVPSRFSGSGSGTDFTLSISNLQPEDFATYYCQQANSFPITFGQGTRLEIK
notes: as for B1
B7: SC06-402 (scFv)
scFv: QVQLVQSGAEVKKPGESLKISCKGSGYSFTSYWIGWVRQMPGKGLEWMGIIYPGDSDTRYSPSFQGQVTISADKSISTAYLQWSSLKASDTAMYYCARWGGVCSSTSCPNRDAFDIWGQGTMVTVSSGTGGSGGTGSGTGGSTQSALTQPRSVSGSPGQSVTISCTGTSSDVGGYNYVSWYQQHPGKAPKLMIYDVSNRPSGVSNRFSGSKSGNTASLTISGLQAEDEAEFHCSSYRSSGASPVVFGGGTKLTVL
notes: as for B1
B8: SC06-092 (scFv)
scFv: EVQLVESGGGLVQPGRSLRLSCTGSGFTFGDYAMSWFRQAPGKGLEWVGFIRNKAYGGTAEYAASVKDRFIISRDDSKSIAYLQMNSLKTEDTAVYYCVRREYDTGWLDYWGQGTLVTVSSGTGGSGGTGSGTGGSTQSALTQPPSASGSPGQSVTISCTGTSSDVGGYNYVSWYQRHPGKAPKLMIYDVTDRPSGVSNRFSGSKSGNTASLTISGLQAEDEADYYCSSYTSSSTSAVFGGGTKLTVL
notes: as for B1
B9: SC06-071 (scFv)
scFv: EVQLVESGGGVVQPGRSLRLSCAASGFTFSSYGMHWVRQAPGKGLEWVAMIWSDGSNKYYADSVKGRFTISRDNSKNTLYLQMNSLRVEDTAVYYCASNYGSGSYWGGFDYWGQGTLVTVSSGTGGSGGTGSGTGGSTQSALTQPASVSGSPGQSITISCTGTSSDVGGYNLVSWYQQHPGKAPKLMIYEGSKRPSGVSNRFFGSKSGDTASLTISGLQAEDEADYYCSSYTTSSTHVFGTGTKVTVL
notes: as for B1
B10: SC06-388 (scFv)
scFv: EVQLVETGAEVKKPGESLRISCKGSGYSFTSYWIAWVRQMPGKGLEWMGVIYPGDSDARYSPSFQGQVTMSVDKSISTAYLQWSSLKASDTAMYYCAKLRSKNTGLDYWGQGTLVTVSSGTGGSGGTGSGTGGSTQSALTQPPSASGSPGQSVTISCTGTSSDVGGYNFVSWYQQHPGKAPKLMIYEVSNRPSGVPDRFSGSKSGNTASLTVSGLQAEDEADYYCSSYAGNNNLAFGGGTQLTVL
notes: as for B1
B11: SC06-089 (scFv)
scFv: EVQLVETGGGLVQPGGSLRLSCAASGFTFSSYSMNWVRQAPGKGLEWVSFISSSSSTIYYADSVKGRFTIARDNAKNSLYLQMNSLRDEDTAVYYCARPVGTGISLFHAFDIWGQGTMVTVSSGTGGSGGTGSGTGGSTQSVLTQPPSVSVAPGQTARITCGGNNIGSKYVHWYQQKPGQAPVLVVYDDSDRPSGIPERFSGSNSGNTATLTISRVEAGDEADFYCQVWDGSSDPVVFGGGTKLTVL
notes: as for B1
B12: SC06-079 (scFv)
scFv: EVQLVESGGGLVQPGGSLRLSCAASGFTFSSYAMSWVRQAPGKGLEWVSAISGTGGSAYYADSVKGRFTISRDNSKNTVYLQMNSLRAEDTAVYYCAKGHSSGTNWGQGTLVTVSSGTGGSGGTGSGTGGSTSYVLTQPPSASGTPGQRVTISCSGSSSNIGSNFVYWYQQLPGTAPKLLIYRNNQRPSGVPDRFSGSKSGTSASLAISGLRSEDEADYYCAAWDDSLSGVLFGGGTQLTVL
notes: as for B1
B13: SC05-157 (scFv)
scFv: EVQLVESGAEVKKPGESLKISCKGSGYSFTNYWIGWVRQMPGKGLEWMGIVYPGDSDTRYSPSFQGQVTISADKSISTAYLQWSSLKASDTAVYYCARRMAVAGSDAFDIWGQGTMVTVSSGTGGSGGTGSGTGGSTQAVLTQPSSASGTPGQTVTISCSGSTSNIGSHNVNWYQHLPGTAPKLLIYINNKRPSGVPDRFSGSKSGSSASLAISGLQSEDEADYYCAAWDDSLRRPVFGGGTQLTVL
notes: as for B1
B14: SC06-415 (scFv)
scFv: EVQLVESGGGLVQPGRSLRLSCAASGFTFDDYAMHWVRQAPGKGLEWVSGISWNSGSIGYADSVKGRFTISRDNAKNSLYLQMNSLRAEDSAVYYCARGGQRFDFWGQGTLVTVSSGTGGSGGTGSGTGGSTQSALTQPPSASGSPGQSVTISCTGTSSDVGGYNYVSWYQQLPGKAPKLLIYDVNNRPSGVSNRFSGSKSGNTASLTISGLQAEDEAEYYCGSSVGSRLRIFGGGTKLTVL
notes: as for B1
B15: SC06-087 (scFv)
scFv: EVQLVESGGGLVKPGGSLRLSCAASGFTFSSNSMNWVRQAPGKGLEWVSFISSSSTYIYYADSVKGRFTISRDNAKNSLYLQMNSLRAEDTAVYYCARESAAGISYDAFDIWGQGTMVTVSSGTGGSGGTGSGTGGSTQSALTQPASVSGSPGQSITISCTGTSSDVGGYKYVSWYQQHPGKAPKLMIYEVSNRPSGVSNRFSGSKSGSTASLTISGLQAEDEADYYCSSYTSSSTLGVFGTGTKVTVL
notes: as for B1
B16: SC06-198 (scFv)
scFv: QLQLQESGPGLVKPSETLSLTCAVSGYSITSGYYWGWVRQPPGKGLEWIGSIYHTGSTYYNPSLKSRVTISVDTSKNQFSLKLNSLTAADTAVYFCASQSPAFDFWGQGTMVTVSSGTGGSGGTGSGTGGSTQSVLTQPPSVSGAPGQRVTISCTGSSSNIGTGYDVHWYQQLPGTAPKLLIYGNNNRPSGVPDRFSGSKSGTSASLAITGLQAEDEADYYCATWDDSLNGWVFGGGTKLTVP
notes: as for B1
B17: SC06-252 (scFv)
scFv: EVQLVETGGGLVQPGGSLRLSCAASGLTFSSYAMSWVRQAPGKGLEWVSALSGSTTFYADSVKGRFTISRDNAKNTLYLQMNSLRAEDTAVYYCARGNYYGMDVWGQGTTVTVSSGTGGSGGTGSGTGGSTSYVLTQPPSASGTPGQRVTISCSGSSSNIGKFYVYWYQQFPGAAPKLLIYSNNQRPSGVPDRFSGSKSGTSASLAISGLQSEDEADYYCAAWDGSLNGYVFGTGTKVTVL
notes: as for B1
B18: SC06-409 (scFv)
scFv: EVQLVQSGAEVKKPGESLKISCKGSGYSFTNYWIGWVRQMPGKGLEWMGIIYPGDSDTRYSPSFQGQVTISADKSISTAYLQWSSLKASDTAMYYCARHTQNKNGMNTFDIWGQGTMVTVSSGTGGSGGTGSGTGGSTQSALTQPPSASGSPGQSVTISCTGTSSDIGGYNYVSWYQQHPGKAPKLMIYEVSNRPPGVSNRFSGSKSGNTASLTISGLQAEDEADYYCSSYSTTTTRVIFGGGTKLTVL
notes: as for B1
B19: SC06-077 (scFv)
scFv: QVQLVQSGAEVKKPGSSVKVSCKASGGTFSSYAISWVRQAPGQGLEWMGGIIPIFGTANYAQKFQGRVTITADESTSTAYMELSSLRSEDTAVYYCAREGGVGPAFDIWGQGTMVTVSSGTGGSGGTGSGTGGSTDIQMTQSPDSLAVSLGERATINCKSSQSVLHNSNNKNYLAWYQQKPGQPPKLLIYWASTRESGVPDRFSGSGSGTDFTLTISSLQAEDVAVYYCQQYYGSPYTFGQGTKLEIK
notes: as for B1
B20: SC06-246 (scFv)
scFv: EVQLVESGGGLIQPGGSLRLSCAASGFTVSSDFMTWVRQAPGRGLEWVSLIYSGGKTNYADSVKGRFTISRDNSRNTLYLQMNSLRAEDTAVYYCARSVCSTISCSKLDDWGQGTLVTVSSGTGGSGGTGSGTGGSTQAVLTQPSSVSVAPGQTARITCGGNNIGRKSVHWYQQKPGLAPVLVVNDNSDRPSGIPARFSGSNSGNTATLTISRVEAGDEADYYCHVWGSSRDHYVFGTGTKVTVL
notes: as for B1

T1 sequence (P02769 25-607 limits assumed): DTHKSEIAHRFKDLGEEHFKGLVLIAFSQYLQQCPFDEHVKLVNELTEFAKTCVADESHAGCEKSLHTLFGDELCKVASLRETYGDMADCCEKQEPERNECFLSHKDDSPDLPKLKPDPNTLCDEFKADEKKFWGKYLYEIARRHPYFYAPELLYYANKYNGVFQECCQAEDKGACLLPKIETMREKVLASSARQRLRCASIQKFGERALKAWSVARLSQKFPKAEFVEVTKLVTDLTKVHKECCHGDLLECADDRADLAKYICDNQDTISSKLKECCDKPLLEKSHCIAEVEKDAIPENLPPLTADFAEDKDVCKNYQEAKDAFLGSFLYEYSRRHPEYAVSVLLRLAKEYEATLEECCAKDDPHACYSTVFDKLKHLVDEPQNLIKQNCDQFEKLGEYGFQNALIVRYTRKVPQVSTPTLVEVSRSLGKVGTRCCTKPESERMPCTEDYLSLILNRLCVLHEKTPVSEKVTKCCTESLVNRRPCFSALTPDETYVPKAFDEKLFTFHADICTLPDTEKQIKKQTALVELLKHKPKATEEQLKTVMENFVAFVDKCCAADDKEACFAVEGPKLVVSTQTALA

This assay addresses T1, 송아지 혈청 알부민(BSA) (bovine (printed: 송아지 혈청 알부민), UniProt P02769 25-607).
T1 construct: also called bovine serum albumin
The experiment in a line: phage ELISA, 1% BSA coated, anti-M13-peroxidase, absorbance 492 nm.
As for B1, the binding result is on record as “no binding”.

Regarding B2, the binding result is recorded as “no binding”.

In the case of B3, the binding result is “no binding”.

B4: the binding result is listed as “no binding”.

For B5, the binding result is “no binding”.

Take B6: the binding result was “no binding”.

In the case of B7, the binding result is reported as “no binding”.

Regarding B8, the binding result is listed as “no binding”.

Consider B9, for which the binding result is “no binding”.

B10: the binding result is on record as “no binding”.

With B11, the binding result is “no binding”.

Consider B12, for which the binding result is given as “no binding”.

Turning to B13, the binding result is listed as “no binding”.

In the case of B14, the binding result is “no binding”.

On to B15, for which the binding result was “no binding”.

For the molecule B16, the binding result is given as “no binding”.

As for B17, the binding result is “no binding”.

For B18, the binding result is “no binding”.

As to B19, the binding result is given as “no binding”.

As to B20, the binding result is “no binding”.
